In paper PMC6555819, “Comprehensive study of nuclear receptor DNA binding provides a revised framework for understanding receptor specificity”:
Where a chain is given by its changes, count along the chain named.

Biological target: RARb:RXRa (Homo sapiens, UniProt P10826;P19793 full;full)
Assay: no ligand; PBM; 270 nM : 90 nM RXRa; PBS pH 7.4, 2% milk, 0.02% Triton X-100, 1 mM DTT, BSA, 0.4 mg/ml salmon testes DNA
Conditions: tags: His kept;His cleaved; copies: 1;1; label: surface-attached array probe
Method in brief: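 The probes on custom Agilent 4×180K protein-binding microarrays were double-stranded, with 34-nt variable regions bearing direct-repeat seeds, single-nucleotide variants, half-site ablations and random human genomic background sequences. Incubation lasted 1 h with ligand-free nuclear receptor dimers in PBS pH 7.4, 2% milk, 0.02% Triton X-100, 1 mM DTT, 0.2 mg/mL BSA and 0.4 mg/ml salmon testes DNA. Antibodies against each partner (one per run) detected bound dimers, and fluorescence scans were regression-normalized. Binding z-scores take the random background probes as reference.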

Sequence of RARb:RXRa (P10826 whole entry, chain 1 of 2): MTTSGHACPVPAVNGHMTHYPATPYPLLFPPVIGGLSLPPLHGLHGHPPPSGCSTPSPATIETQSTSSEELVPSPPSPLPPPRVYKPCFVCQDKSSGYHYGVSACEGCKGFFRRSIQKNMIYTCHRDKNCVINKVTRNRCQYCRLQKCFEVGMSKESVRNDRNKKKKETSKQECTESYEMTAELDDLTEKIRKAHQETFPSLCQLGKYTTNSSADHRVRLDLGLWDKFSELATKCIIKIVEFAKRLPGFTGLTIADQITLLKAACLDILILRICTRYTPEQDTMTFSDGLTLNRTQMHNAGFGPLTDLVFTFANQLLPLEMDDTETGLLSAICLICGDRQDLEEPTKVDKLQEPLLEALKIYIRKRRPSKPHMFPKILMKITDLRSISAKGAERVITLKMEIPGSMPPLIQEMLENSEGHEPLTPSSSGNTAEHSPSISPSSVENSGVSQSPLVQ
Sequence of RARb:RXRa (P19793 whole entry, chain 2 of 2): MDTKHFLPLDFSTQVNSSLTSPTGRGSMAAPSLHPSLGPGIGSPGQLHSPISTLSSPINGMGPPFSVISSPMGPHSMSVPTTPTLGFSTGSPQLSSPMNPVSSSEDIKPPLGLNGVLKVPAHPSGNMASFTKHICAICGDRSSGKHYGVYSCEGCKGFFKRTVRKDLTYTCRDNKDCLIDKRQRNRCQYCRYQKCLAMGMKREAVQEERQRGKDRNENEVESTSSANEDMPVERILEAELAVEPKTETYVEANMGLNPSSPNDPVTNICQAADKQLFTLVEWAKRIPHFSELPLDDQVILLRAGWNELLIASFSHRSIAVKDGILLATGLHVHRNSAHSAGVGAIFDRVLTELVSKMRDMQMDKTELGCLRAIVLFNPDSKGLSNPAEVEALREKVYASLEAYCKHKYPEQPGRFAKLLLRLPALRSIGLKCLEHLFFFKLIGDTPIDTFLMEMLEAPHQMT

B1: NRC3_wobSeed61_DR2_T12G_o1 (dsDNA)
DNA 1: GCCGTCCAAGGGCAGCAGGTCAGTGAAAGCGACGTGGCGATTGACAGCGTAGAATGAAGG
DNA 2: CCTTCATTCTACGCTGTCAATCGCCACGTCGCTTTCACTGACCTGCTGCCCTTGGACGGC
- binding signal: 3.09 PBM z-score against 500 random probes

B2: NRC3_wobSeed62_DR2_T20G_o1 (dsDNA)
DNA 1: GCTCTGCTAGGTCAGTTGGGCAGCTAACGAGCTGCCGCGATTGACAGCGTAGAATGAAGG
DNA 2: CCTTCATTCTACGCTGTCAATCGCGGCAGCTCGTTAGCTGCCCAACTGACCTAGCAGAGC
- binding signal: 3.09 PBM z-score against 500 random probes

B3: NRC3_wobSeed65_DR2_T8A_o1 (dsDNA)
DNA 1: GCATATGAAGGTTATCGGGTCATTCAGTTTGCGCATGCGATTGACAGCGTAGAATGAAGG
DNA 2: CCTTCATTCTACGCTGTCAATCGCATGCGCAAACTGAATGACCCGATAACCTTCATATGC
- binding signal: 3.08 PBM z-score against 500 random probes

B4: NRC3_wobSeed112_DR4_A27C_o1 (dsDNA)
DNA 1: GCTAGCCTAGGTCAGATCGGGCCAGTCTACGCTATAGCGATTGACAGCGTAGAATGAAGG
DNA 2: CCTTCATTCTACGCTGTCAATCGCTATAGCGTAGACTGGCCCGATCTGACCTAGGCTAGC
- binding signal: 3.08 PBM z-score against 500 random probes

B5: NRC3_wobSeed112_DR4_C23G_o1 (dsDNA)
DNA 1: B4 DNA 1 with C23G, C27A
DNA 2: B4 DNA 2 with G34T, G38C
- binding signal: 3.08 PBM z-score against 500 random probes

B6: NRC3_wobSeed111_DR4_G25T_o1 (dsDNA)
DNA 1: GCCGAACTAGGTCAGAACAGGACATTGAAGGATGATGCGATTGACAGCGTAGAATGAAGG
DNA 2: CCTTCATTCTACGCTGTCAATCGCATCATCCTTCAATGTCCTGTTCTGACCTAGTTCGGC
- binding signal: 3.08 PBM z-score against 500 random probes

B7: NRC3_wobSeed5_DR0_G9C_o1 (dsDNA)
DNA 1: GCCCTTACCGGTCAAGGTTATAGCACGGGTGGTACGGCGATTGACAGCGTAGAATGAAGG
DNA 2: CCTTCATTCTACGCTGTCAATCGCCGTACCACCCGTGCTATAACCTTGACCGGTAAGGGC
- binding signal: 3.08 PBM z-score against 500 random probes

B8: NRC3_wobSeed51_DR2_G25T_o1 (dsDNA)
DNA 1: GCCCTCGGAGGACAGAAGGTCAGATCTGTCCGCTTTGCGATTGACAGCGTAGAATGAAGG
DNA 2: CCTTCATTCTACGCTGTCAATCGCAAAGCGGACAGATCTGACCTTCTGTCCTCCGAGGGC
- binding signal: 3.07 PBM z-score against 500 random probes

B9: NRC3_wobSeed9_DR0_T22C_o1 (dsDNA)
DNA 1: GCATCTCTAGGTAAAGTTCAGCGAAAGATCGATAGAGCGATTGACAGCGTAGAATGAAGG
DNA 2: CCTTCATTCTACGCTGTCAATCGCTCTATCGATCTTTCGCTGAACTTTACCTAGAGATGC
- binding signal: 3.07 PBM z-score against 500 random probes

B10: NRC3_wobSeed75_DR3_C6A_o1 (dsDNA)
DNA 1: GCTCTAGGAGGACACGAAGGTCAGAGCTTTCCAGAGGCGATTGACAGCGTAGAATGAAGG
DNA 2: CCTTCATTCTACGCTGTCAATCGCCTCTGGAAAGCTCTGACCTTCGTGTCCTCCTAGAGC
- binding signal: 3.07 PBM z-score against 500 random probes

B11: NRC3_wobSeed4_DR0_A24C_o1 (dsDNA)
DNA 1: GCCCTACTGGGCCAAGGTCATTGCTCAGTCAAAGCAGCGATTGACAGCGTAGAATGAAGG
DNA 2: CCTTCATTCTACGCTGTCAATCGCTGCTTTGACTGAGCAATGACCTTGGCCCAGTAGGGC
- binding signal: 3.07 PBM z-score against 500 random probes

B12: NRC3_wobSeed86_DR3_T17A_o1 (dsDNA)
DNA 1: GCGCTGCTAGGTCAGGATGGTCAGCTAACGGGTACGGCGATTGACAGCGTAGAATGAAGG
DNA 2: CCTTCATTCTACGCTGTCAATCGCCGTACCCGTTAGCTGACCATCCTGACCTAGCAGCGC
- binding signal: 3.06 PBM z-score against 500 random probes

B13: NRC3_wobSeed98_DR4_C13A_o1 (dsDNA)
DNA 1: GCACTAGTTGGTAAGCTGAGGTCACACACAATTCGGGCGATTGACAGCGTAGAATGAAGG
DNA 2: CCTTCATTCTACGCTGTCAATCGCCCGAATTGTGTGTGACCTCAGCTTACCAACTAGTGC
- binding signal: 3.06 PBM z-score against 500 random probes

B14: NRC3_wobSeed86_DR3_G24A_o1 (dsDNA)
DNA 1: B12 DNA 1 with A17T, G24A
DNA 2: B12 DNA 2 with C37T, T44A
- binding signal: 3.06 PBM z-score against 500 random probes

B15: NRC3_wobSeed46_DR1_A5T_o1 (dsDNA)
DNA 1: GCTTTCCAAGGTGAAAGGTCGTTGATGCACGCCTTGGCGATTGACAGCGTAGAATGAAGG
DNA 2: CCTTCATTCTACGCTGTCAATCGCCAAGGCGTGCATCAACGACCTTTCACCTTGGAAAGC
- binding signal: 3.06 PBM z-score against 500 random probes

B16: NRC3_wobSeed86_DR3_A23T_o1 (dsDNA)
DNA 1: B12 DNA 1 with A17T, A23T
DNA 2: B12 DNA 2 with T38A, T44A
- binding signal: 3.05 PBM z-score against 500 random probes

B17: NRC3_wobSeed46_DR1_C7G_o1 (dsDNA)
DNA 1: B15 DNA 1 with T5A, C7G
DNA 2: B15 DNA 2 with G54C, A56T
- binding signal: 3.05 PBM z-score against 500 random probes

B18: NRC3_wobSeed72_DR2_G5A_o1 (dsDNA)
DNA 1: GCTCAAGTAGGTTACGGGGGCATTCAGGGATGAAGAGCGATTGACAGCGTAGAATGAAGG
DNA 2: CCTTCATTCTACGCTGTCAATCGCTCTTCATCCCTGAATGCCCCCGTAACCTACTTGAGC
- binding signal: 3.05 PBM z-score against 500 random probes

B19: NRC3_wobSeed90_DR3_A8C_o1 (dsDNA)
DNA 1: GCCATACCGGGTCAGCTAGGCCAGAGTAGGGACGGCGCGATTGACAGCGTAGAATGAAGG
DNA 2: CCTTCATTCTACGCTGTCAATCGCGCCGTCCCTACTCTGGCCTAGCTGACCCGGTATGGC
- binding signal: 3.04 PBM z-score against 500 random probes

B20: NRC3_wobSeed41_DR1_G11C_o1 (dsDNA)
DNA 1: GCATATGTAGCTTAAGGGTCATTCAGGTTGGTTCGCGCGATTGACAGCGTAGAATGAAGG
DNA 2: CCTTCATTCTACGCTGTCAATCGCGCGAACCAACCTGAATGACCCTTAAGCTACATATGC
- binding signal: 3.04 PBM z-score against 500 random probes

B21: NRC3_wobSeed111_DR4_G27T_o1 (dsDNA)
DNA 1: B6 DNA 1 with T25G, G27T
DNA 2: B6 DNA 2 with C34A, A36C
- binding signal: 3.03 PBM z-score against 500 random probes

B22: NRC3_wobSeed4_DR0_C13G_o1 (dsDNA)
DNA 1: B11 DNA 1 with C13G, C24A
DNA 2: B11 DNA 2 with G37T, G48C
- binding signal: 3.03 PBM z-score against 500 random probes

B23: NRC3_wobSeed124_DR5_T5G_o1 (dsDNA)
DNA 1: GCCCGACTGGGCCATTCAGAGGTCATTGATCATATGGCGATTGACAGCGTAGAATGAAGG
DNA 2: CCTTCATTCTACGCTGTCAATCGCCATATGATCAATGACCTCTGAATGGCCCAGTCGGGC
- binding signal: 3.03 PBM z-score against 500 random probes

B24: NRC3_wobSeed69_DR2_A7C_o1 (dsDNA)
DNA 1: GCAGTCCAAGTTCACTAGGTAACGTAAGATTCAGCTGCGATTGACAGCGTAGAATGAAGG
DNA 2: CCTTCATTCTACGCTGTCAATCGCAGCTGAATCTTACGTTACCTAGTGAACTTGGACTGC
- binding signal: 3.03 PBM z-score against 500 random probes

B25: NRC3_wobSeed89_DR3_T13A_o1 (dsDNA)
DNA 1: GCCTATGTAGGTAAAGGGGGTCATTCAGTTTGAAAGGCGATTGACAGCGTAGAATGAAGG
DNA 2: CCTTCATTCTACGCTGTCAATCGCCTTTCAAACTGAATGACCCCCTTTACCTACATAGGC
- binding signal: 3.02 PBM z-score against 500 random probes

B26: NRC3_wobSeed106_DR4_G25C_o1 (dsDNA)
DNA 1: GCCTCGAAAGGTCGGTTGAGGTGACTATACGGATAAGCGATTGACAGCGTAGAATGAAGG
DNA 2: CCTTCATTCTACGCTGTCAATCGCTTATCCGTATAGTCACCTCAACCGACCTTTCGAGGC
- binding signal: 3.02 PBM z-score against 500 random probes

B27: NRC3_wobSeed46_DR1_T26A_o1 (dsDNA)
DNA 1: B15 DNA 1 with T5A, T26A
DNA 2: B15 DNA 2 with A35T, A56T
- binding signal: 3.02 PBM z-score against 500 random probes

B28: NRC3_wobSeed69_DR2_A8T_o1 (dsDNA)
DNA 1: B24 DNA 1 with C7A, A8T
DNA 2: B24 DNA 2 with T53A, G54T
- binding signal: 3.02 PBM z-score against 500 random probes

B29: NRC3_wobSeed46_DR1_T26G_o1 (dsDNA)
DNA 1: B15 DNA 1 with T5A, T26G
DNA 2: B15 DNA 2 with A35C, A56T
- binding signal: 3.01 PBM z-score against 500 random probes

B30: NRC3_wobSeed86_DR3_A23G_o1 (dsDNA)
DNA 1: B12 DNA 1 with A17T, A23G
DNA 2: B12 DNA 2 with T38C, T44A
- binding signal: 3.01 PBM z-score against 500 random probes

B31: NRC3_wobSeed111_DR4_G21T_o1 (dsDNA)
DNA 1: B6 DNA 1 with G21T, T25G
DNA 2: B6 DNA 2 with A36C, C40A
- binding signal: 3.01 PBM z-score against 500 random probes

B32: NRC3_wobSeed98_DR4_G11C_o1 (dsDNA)
DNA 1: B13 DNA 1 with G11C, A13C
DNA 2: B13 DNA 2 with T48G, C50G
- binding signal: 3.01 PBM z-score against 500 random probes

B33: NRC3_wobSeed10_DR0_A7G_o1 (dsDNA)
DNA 1: GCATCGGAAGGTCGAGGTGAGTATAGAGAAAGGGAAGCGATTGACAGCGTAGAATGAAGG
DNA 2: CCTTCATTCTACGCTGTCAATCGCTTCCCTTTCTCTATACTCACCTCGACCTTCCGATGC
- binding signal: 3 PBM z-score against 500 random probes
